Test results from US20150337037A1 (MSM PROTEIN TECHNOLOGIES, published 2015).

T1: human chemokine receptor CCR6 (human, UniProt P51684 1-374)
T1 construct: whole, on cells; gene was synthesized (codon-optimized); a C-terminal tag may be present on the expressed protein; also called CCR6 human; human CCR6
T1 sequence (looked up): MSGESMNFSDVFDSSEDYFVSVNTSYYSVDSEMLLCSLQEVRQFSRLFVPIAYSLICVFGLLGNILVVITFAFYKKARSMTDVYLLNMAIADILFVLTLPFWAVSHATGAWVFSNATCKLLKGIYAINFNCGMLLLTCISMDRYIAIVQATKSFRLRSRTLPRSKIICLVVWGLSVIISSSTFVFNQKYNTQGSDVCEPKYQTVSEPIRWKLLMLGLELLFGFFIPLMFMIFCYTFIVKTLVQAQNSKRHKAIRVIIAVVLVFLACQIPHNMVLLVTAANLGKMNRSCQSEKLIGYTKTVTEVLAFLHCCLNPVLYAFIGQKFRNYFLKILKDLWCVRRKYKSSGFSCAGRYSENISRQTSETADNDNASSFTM

T2: mouse CCR6 (mouse, UniProt O54689 1-367)
T2 construct: whole, on cells; gene derived from a cDNA library; also called CCR6 mouse
T2 sequence (looked up): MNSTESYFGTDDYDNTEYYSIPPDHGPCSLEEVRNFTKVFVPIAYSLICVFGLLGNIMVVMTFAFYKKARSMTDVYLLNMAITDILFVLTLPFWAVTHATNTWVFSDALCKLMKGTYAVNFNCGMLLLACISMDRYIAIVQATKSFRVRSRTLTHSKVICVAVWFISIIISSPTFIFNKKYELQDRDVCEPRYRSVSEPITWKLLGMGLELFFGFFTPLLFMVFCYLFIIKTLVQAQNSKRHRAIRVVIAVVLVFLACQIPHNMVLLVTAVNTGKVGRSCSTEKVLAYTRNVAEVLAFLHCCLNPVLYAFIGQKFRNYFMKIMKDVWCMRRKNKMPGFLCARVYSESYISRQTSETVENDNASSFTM


Tests used:
cynomolgus monkey CCR6 [1] = biological target: T3, cynomolgus monkey CCR6 (cynomolgus monkey (Macaca Fascicularis)); experiment: flow cytometry on cells expressing the target, IgG1 titration, anti-human Fc-PE
T3 construct: whole, on cells; gene derived from a total RNA library; also called CCR6 cyno; cyno CCR6

[2] = biological target: T1, human chemokine receptor CCR6; experiment: as above
mouse CCR6 [3] = biological target: T2, mouse CCR6; experiment: flow cytometry on CHO cells expressing mouse CCR6
cynomolgus monkey CCR6 [4] = biological target: T3, cynomolgus monkey CCR6; experiment: flow cytometry on cells expressing the target, IgG1 titration (repeat of Table 2)
[5] = biological target: T1, human chemokine receptor CCR6; experiment: as above
mouse CCR6 [6] = biological target: T2, mouse CCR6; experiment: flow cytometry on cells expressing the target, IgG1 titration, anti-human Fc-PE
mouse CCR6 [7] = biological target: T2, mouse CCR6; experiment: flow cytometry on cells expressing the target, IgG1 titration (repeat of Table 2)

Binder	EC50 (cynomolgus monkey CCR6 [1]) [nM]	EC50 [2] [nM]	binding result (mouse CCR6 [3])	EC50 (cynomolgus monkey CCR6 [4]) [nM]	EC50 [5] [nM]	EC50 (mouse CCR6 [6]) [nM]	EC50 (mouse CCR6 [7]) [nM]
MSM-R619 IgG1 (antibody, V domains shown, Fully human IgG1; also called MSM R19) VH: EVQLLESGGGLVQPGGSLRLSCAASGFTFSNYYIHWVRQAPGKGLEWVSLISPGGSTTYYADSVKGRFTISRDNSKNTLYLQMNSLRAEDTAVYYCARGRTWWSTYYSGIDYWGQGTLVTVSS VL: not shown	2	1.7	no binding	2	1.7		
MSM-R617 IgG1 (antibody, V domains shown, Fully human IgG1; also called MSMR617.46) VH: EVQLLESGGGLVQPGGSLRLSCAASGFTFSGYAMHWVRQAPGKGLEWVSSIGSRRGFTSYADSVKGRFTISRDNSKNTLYLQMNSLRAEDTAVYYCARSYAYQYRGLDYWGQGTLVTVSS VL: EIVLTQSPGTLSLSPGERATLSCRASQSVSSSYLAWYQQKPGQAPRLLIYGASSRATGIPDRFSGSGSGTDFTLTISRLEPEDFAVYYCQQRSSVTFGQGTKVEIKR	1.9	1.5		1.9	1.5		
MSM-R609 IgG1 (antibody, V domains shown, Fully human IgG1) VH: EVQLLESGGGLVQPGGSLRLSCAASGFTFTASYMSWVRQAPGKGLEWVSNISPKYGNTYYADSVKGRFTISRDNSKNTLYLQMNSLRAEDTAVYYCARSIRSAKYSYYGIDYWGQGTLVTVSS VL: EIVLTQSPGTLSLSPGERATLSCRASQSVSSSYLAWYQQKPGQAPRLLIYGASSRATGIPDRFSGSGSGTDFTLTISRLEPEDFAVYYCQQSASAPVTFGQGTKVEIKR	1.6	1		1.6	1		
MSM-R610 IgG1 (antibody, V domains shown, Fully human IgG1; also called MSM R610.46) VH: EVQLLESGGGLVQPGGSLRLSCAASGFTFTGSSMSWVRQAPGKGLEWVSLISSRGSYTYYADSVKGRFTISRDNSKNTLYLQMNSLRAEDTAVYYCARSYAYQYRGLDYWGQGTLVTVSS VL: EIVLTQSPGTLSLSPGERATLSCRASQSVSSSYLAWYQQKPGQAPRLLIYGASSRATGIPDRFSGSGSGTDFTLTISRLEPEDFAVYYCQQNRTSPITFGQGTKVEIKR	> 100	> 100	no binding	> 100	> 100		
MSM-R604 IgG1 (antibody, V domains shown, Fully human IgG1) VH: EVQLLESGGGLVQPGGSLRLSCAASGFTFTNYSMHWVRQAPGKGLEWVSLISPYSSSTYYADSMKGRFTISRDNSKNTLYLQMNSLRAEDTAVYYCARGRYYGAYSYPGFDYWGQGTLVTVSS VL: EIVLTQSPGTLSLSPGERATLSCRASQSVSSSYLAWYQQKPGQAPRLLIYGASSRATGIPDRFSGSGSGTDFTLTISRLEPEDFAVYYCQQSAKNPLTFGQGTKVEIKR	1.5	2.9	no binding	1.5	2.9		
MSM-R622 IgG1 (antibody, V domains shown, Fully human IgG1; also called MSM R622.46) VH: EVQLLESGGGLVQPGGSLRLSCAASGFTFSKNSMSWVRQAPGKGLEWVSLITSYSGYTYYADSVKGRFTISRDNSKNTLYLQMNSLRAEDTAVYYCARSYAYQYRGLDYWGQGTLVTVSS VL: not shown		1.9			1.9		
MSM-R608 IgG1 (antibody, Fully human IgG1) heavy: not shown light: EIVLTQSPGTLSLSPGERATLSCRASQSVSSSYLAWYQQKPGQAPRLLIYGASSRATGIPDRFSGSGSGTDFTLTISRLEPEDFAVYYCQQSYYAPVTFGQGTKVEIKRTVAAPSVFIFPPSDEQLKSGTASVVCLLNNFYPREAKVQWKVDNALQSGNSQESVTEQDSKDSTYSLSSTLTLSKADYEKHKVYACEVTHQGLSSPVTKSFNRGEC	2.5	2		2.5	2	1	1
MSM-R612 IgG1 (antibody, V domains shown, Fully human IgG1) VH: EVQLLGSGGGLVQPGGSLRLSCAASGFTFTTYYMHWVRQAPGKGLEWVSLISPNAGNTYYADSVKGRFTISRDNSKNTLYLQMNSLRAEDTAVYYCARGRSRAGTSGMDYWGQGTLVTVSS VL: not shown	1.6	1		1.6	1	1.5	1.5
